Data published in patent publication US20090214553A1.

Molecular target: human CTLA-4-murine Ig fusion protein (human) (UniProt P16410)
Assay: sandwich ELISA on the CTLA4-muIg standard with the blocking pair BNI3 (coated) and biotinylated AS-33 (detecting)

Substance: BNI3, CTLA-4 blocking mouse IgG2a mAb (antibody)
- limit of sensitivity: 6.25 ng/mL
